Measured values from US20220056104A1 (Janssen / Centocor, published 2022).
Read-outs that look alike come from different tables or passages of the source.

T1: Recombinant DR3-Fc (R&D Systems, cat. #943-D3) (UniProt Q93038 25-199, limits assumed)
T1 construct: dimeric MW~92 kDa; also called DR3 receptor; Fc-DR3; not shown: Fc part of the bought fusion
T1 sequence (looked up): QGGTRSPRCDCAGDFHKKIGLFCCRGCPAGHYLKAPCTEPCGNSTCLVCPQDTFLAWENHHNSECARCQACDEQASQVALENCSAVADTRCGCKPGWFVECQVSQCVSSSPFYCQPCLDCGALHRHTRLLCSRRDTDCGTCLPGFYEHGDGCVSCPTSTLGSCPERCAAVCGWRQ

T2: DcR3 (UniProt O95407 30-300, limits assumed)
T2 construct: the construct is not described; also called decoy receptor DcR3; TNFRSF6B
T2 sequence (looked up): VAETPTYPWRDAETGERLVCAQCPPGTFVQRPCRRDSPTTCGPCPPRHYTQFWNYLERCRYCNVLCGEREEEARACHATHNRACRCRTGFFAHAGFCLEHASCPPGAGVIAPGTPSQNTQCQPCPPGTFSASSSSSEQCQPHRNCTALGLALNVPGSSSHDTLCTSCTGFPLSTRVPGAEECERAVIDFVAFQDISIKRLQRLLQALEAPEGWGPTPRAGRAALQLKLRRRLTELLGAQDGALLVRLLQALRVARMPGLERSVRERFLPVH


Tests used:
[1] = target: T1, Recombinant DR3-Fc (R&D Systems, cat. …); assay: ELISA, DR3-Fc immobilized
Protocol: (§1) All ELISA-based measurements were collected in triplicate, and error values report the standard error between measurements. Recombinant DR3-Fc (R&D Systems, cat. #943-D3), dimeric MW˜92 kDa, was non-specifically immobilized onto plates (Nunc maxisorp, cat. #436110) in 100 μL DR3-Fc, diluted to 10 μg/mL onto a 96-well White Maxisorp plate (Nunc, cat #436110) (O/N, 4° C.). Plates were block for 1 hour at room temperature with 250 μl/well of casein buffer and blocking buffer was removed. 50 μL of TL1A variants were diluted in StartingBlock PBS (Thermo Fisher Scientific), at 25 μg/mL, diluting 3× over each well, according to the plate map description for 20160623) per well on a 96-well White Maxisorp plate (Nunc, cat #: 436110) (overnight at 4° C.).
(§2) Plates were washed three times with TBST. 100 μl/well polyclonal rabbit anti-human TL1A-biotin antibody (diluted 1:1000 in Starting Block PBS) was added and plates were incubated for 1 hour at room temperature with shaking at 150 rpm. TL1A-biotin antibody was removed and 100 μl/well streptavidin-HRP conjugate (diluted 1:10,000 in Starting Block PBS) was added to plates. […] 100 μl/well POD Chemiluminescence substrate (Roche, cat #: 11582950001) was added immediately prior to reading plate luminescence using a Molecular Devices M5 plate reader with a delay setting of 100 ms.

[2] = target: T1, Recombinant DR3-Fc (R&D Systems, cat. …); assay: ELISA
DcR3 [3] = target: T2, DcR3; assay: ELISA, DcR3
[4] = target: T1, Recombinant DR3-Fc (R&D Systems, cat. …); assay: ELISA, DR3-Fc immobilized; remark: listed apart in the source
Protocol: as §1
Plates were washed three times with TBST. 100 μl/well polyclonal rabbit anti-human TL1A-biotin antibody (diluted 1:1000 in Starting Block PBS) was added and plates were incubated for 1 hour at room temperature with shaking at 150 rpm. TL1A-biotin antibody was removed and 100 μl/well streptavidin-HRP conjugate (diluted 1:10,000 in Starting Block PBS) was added to plates. Plates were incubated for 1 hour at room temperature with shaking at 150 rpm. Plates were washed three times with TBST. 100 μl/well POD Chemiluminescence substrate (Roche, cat #: 11582950001) was added immediately prior to reading plate luminescence using a Molecular Devices M5 plate reader with a delay setting of 100 ms.
These combination mutants were tested for binding to DR3 and DcR3 (FIGS. 5E and 5F, respectively).

[5] = target: T1, Recombinant DR3-Fc (R&D Systems, cat. …); assay: ELISA, DR3-Fc immobilized; remark: listed apart in the source
How it was run: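 DR3-Fc (10 μg/mL) was coated overnight at 4 °C, blocked with casein, then incubated overnight at 4 °C with TL1A variants from 25 μg/mL in 3-fold dilutions. Bound TL1A was detected with biotinylated rabbit anti-human TL1A and streptavidin-HRP, read by chemiluminescence; triplicates, errors as standard error.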

[6] = target: T1, Recombinant DR3-Fc (R&D Systems, cat. …); assay: ELISA, TL1A construct immobilized, DR3 titrated
DcR3 [7] = target: T2, DcR3; assay: ELISA, DcR3; remark: listed apart in the source
[8] = target: T1, Recombinant DR3-Fc (R&D Systems, cat. …); assay: ELISA (FIG. 4C)
Protocol: as §1, §2

Row | EC50 [1] [nM] | fold weaker EC50 than other molecules [2] [fold] | EC50 (DcR3 [3]) [nM] | Rel EC50 (DcR3 [3]) [ratio] | EC50 [4] [nM] | Rel EC50 [4] [ratio] | EC50 [5] [nM] | Rel EC50 [5] | EC50 [6] [nM] | EC50 (DcR3 [7]) [nM] | Rel EC50 (DcR3 [7]) | binding result [8] | Binder
1 | 27.3 | ~3 | – | – | – | – | – | – | – | – | – | – | TL1W19 (His-TEV-TL1A-TL1A-TL1A) (ligand, Single-chain trimer, three TL1A copies in one chain; also called His-scTL1A; His-scTL1A (TL1W19)) HHHHHHENLYFQGAPLRADGDKPRAHLTVVRQTPTQHFKNQFPALHWEHELGLAFTKNRMNYTNKFLLIPESGDYFIYSQVTFRGMTSECSEIRQAGRPNKPDSITVVITKVTDSYPEPTQLLMGTKSVCEVGSNWFQPIYLGAMFSLQEGDKLMVNVSDISLVDYTKEDKTFFGAFLLAPLRADGDKPRAHLTVVRQTPTQHFKNQFPALHWEHELGLAFTKNRMNYTNKFLLIPESGDYFIYSQVTFRGMTSECSEIRQAGRPNKPDSITVVITKVTDSYPEPTQLLMGTKSVCEVGSNWFQPIYLGAMFSLQEGDKLMVNVSDISLVDYTKEDKTFFGAFLLAPLRADGDKPRAHLTVVRQTPTQHFKNQFPALHWEHELGLAFTKNRMNYTNKFLLIPESGDYFIYSQVTFRGMTSECSEIRQAGRPNKPDSITVVITKVTDSYPEPTQLLMGTKSVCEVGSNWFQPIYLGAMFSLQEGDKLMVNVSDISLVDYTKEDKTFFGAFLL
2 | 6.8 | – | 4.6 | 1 | 26.2 | 1 | 26.2 | 1 ratio (head: nM) | 2.5 | 4.6 | 1 ratio (head: nM) | – | TL1W2 (His-TEV-hTL1A 72-251) (ligand, Non-covalent trimer; entry holds the His-TEV tag; also called His-TL1A; His-TL1A (TL1W2)) HHHHHHENLYFQGLKGQEFAPSHQQVYAPLRADGDKPRAHLTVVRQTPTQHFKNQFPALHWEHELGLAFTKNRMNYTNKFLLIPESGDYFIYSQVTFRGMTSECSEIRQAGRPNKPDSITVVITKVTDSYPEPTQLLMGTKSVCEVGSNWFQPIYLGAMFSLQEGDKLMVNVSDISLVDYTKEDKTFFGAFLL
3 | – | – | – | – | – | – | – | – | – | – | – | no binding | TL1W35 (C202S) (ligand) HHHHHHENLYFQGLKGQEFAPSHQQVYAPLRADGDKPRAHLTVVRQTPTQHFKNQFPALHWEHELGLAFTKNRMNYTNKFLLIPESGDYFIYSQVTFRGMTSECSEIRQAGRPNKPDSITVVITKVTDSYPEPTQLLMGTKSVSEVGSNWFQPIYLGAMFSLQEGDKLMVNVSDISLVDYTKEDKTFFGAFLL
4 | – | – | – | – | – | – | 336 | 12.8 ratio (head: nM) | – | 11.8 | 2.6 ratio (head: nM) | – | TL1W137 (His-TEV-TL1A K240S) (ligand, also called TL1W137 (K240S)) HHHHHHENLYFQGLKGQEFAPSHQQVYAPLRADGDKPRAHLTVVRQTPTQHFKNQFPALHWEHELGLAFTKNRMNYTNKFLLIPESGDYFIYSQVTFRGMTSECSEIRQAGRPNKPDSITVVITKVTDSYPEPTQLLMGTKSVCEVGSNWFQPIYLGAMFSLQEGDKLMVNVSDISLVDYTSEDKTFFGAFLL
5 | – | – | 85.5 | – | 17.7 | 0.7 | 17.7 | 0.7 ratio (head: nM) | – | 15.5 | 3.4 ratio (head: nM) | – | TL1W109 (His-TEV-TL1A S187L) (ligand, also called TL1W109 (S187L)) HHHHHHENLYFQGLKGQEFAPSHQQVYAPLRADGDKPRAHLTVVRQTPTQHFKNQFPALHWEHELGLAFTKNRMNYTNKFLLIPESGDYFIYSQVTFRGMTSECSEIRQAGRPNKPDSITVVITKVTDLYPEPTQLLMGTKSVCEVGSNWFQPIYLGAMFSLQEGDKLMVNVSDISLVDYTKEDKTFFGAFLL
6 | – | – | 58.5 | – | 30.2 | 1.2 | 30.2 | 1.2 ratio (head: nM) | – | 10.6 | 2.3 ratio (head: nM) | – | TL1W122 (His-TEV-TL1A N207F) (ligand, also called TL1W122 (N207F)) HHHHHHENLYFQGLKGQEFAPSHQQVYAPLRADGDKPRAHLTVVRQTPTQHFKNQFPALHWEHELGLAFTKNRMNYTNKFLLIPESGDYFIYSQVTFRGMTSECSEIRQAGRPNKPDSITVVITKVTDSYPEPTQLLMGTKSVCEVGSFWFQPIYLGAMFSLQEGDKLMVNVSDISLVDYTKEDKTFFGAFLL
7 | – | – | 89.8 | – | 30 | 1.1 | 30 | 1.1 ratio (head: nM) | – | 16.3 | 3.5 ratio (head: nM) | – | TL1W80 (His-TEV-TL1A K111A) (ligand, also called TL1W80 (K111A)) HHHHHHENLYFQGLKGQEFAPSHQQVYAPLRADGDKPRAHLTVVRQTPTQHFANQFPALHWEHELGLAFTKNRMNYTNKFLLIPESGDYFIYSQVTFRGMTSECSEIRQAGRPNKPDSITVVITKVTDSYPEPTQLLMGTKSVCEVGSNWFQPIYLGAMFSLQEGDKLMVNVSDISLVDYTKEDKTFFGAFLL
8 | – | – | – | – | – | – | 266 | 10.1 ratio (head: nM) | – | 178 | 38.7 ratio (head: nM) | – | TL1W136 (His-TEV-TL1A K240F) (ligand, also called TL1W136 (K240F)) HHHHHHENLYFQGLKGQEFAPSHQQVYAPLRADGDKPRAHLTVVRQTPTQHFKNQFPALHWEHELGLAFTKNRMNYTNKFLLIPESGDYFIYSQVTFRGMTSECSEIRQAGRPNKPDSITVVITKVTDSYPEPTQLLMGTKSVCEVGSNWFQPIYLGAMFSLQEGDKLMVNVSDISLVDYTFEDKTFFGAFLL
9 | – | – | – | – | – | – | – | – | – | – | – | no binding | TL1W34 (C162S, C202S) (ligand, also called TL1A-C162S, C202S; C162S, C202S TL1A variant) HHHHHHENLYFQGLKGQEFAPSHQQVYAPLRADGDKPRAHLTVVRQTPTQHFKNQFPALHWEHELGLAFTKNRMNYTNKFLLIPESGDYFIYSQVTFRGMTSESSEIRQAGRPNKPDSITVVITKVTDSYPEPTQLLMGTKSVSEVGSNWFQPIYLGAMFSLQEGDKLMVNVSDISLVDYTKEDKTFFGAFLL
10 | – | – | 69.2 | – | 16.6 | 0.6 | 16.6 | 0.6 ratio (head: nM) | – | 12.6 | 2.7 ratio (head: nM) | – | TL1W92 (His-TEV-TL1A M158Y) (ligand, also called TL1W92 (M158Y)) HHHHHHENLYFQGLKGQEFAPSHQQVYAPLRADGDKPRAHLTVVRQTPTQHFKNQFPALHWEHELGLAFTKNRMNYTNKFLLIPESGDYFIYSQVTFRGYTSECSEIRQAGRPNKPDSITVVITKVTDSYPEPTQLLMGTKSVCEVGSNWFQPIYLGAMFSLQEGDKLMVNVSDISLVDYTKEDKTFFGAFLL
11 | – | – | 21.2 | – | 31.4 | 1.2 | 31.4 | 1.2 ratio (head: nM) | – | – | – | – | TL1W45 (His-TEV-TL1A E190F) (ligand, also called TL1W45 (E190F)) HHHHHHENLYFQGLKGQEFAPSHQQVYAPLRADGDKPRAHLTVVRQTPTQHFKNQFPALHWEHELGLAFTKNRMNYTNKFLLIPESGDYFIYSQVTFRGMTSECSEIRQAGRPNKPDSITVVITKVTDSYPFPTQLLMGTKSVCEVGSNWFQPIYLGAMFSLQEGDKLMVNVSDISLVDYTKEDKTFFGAFLL
12 | – | – | 24.7 | – | 29.4 | 1.1 | 29.5 | 1.1 ratio (head: nM) | – | 24.7 | 5.4 ratio (head: nM) | – | TL1W38 (His-TEV-TL1A L123K) (ligand, also called TL1W38 (L123K)) HHHHHHENLYFQGLKGQEFAPSHQQVYAPLRADGDKPRAHLTVVRQTPTQHFKNQFPALHWEHEKGLAFTKNRMNYTNKFLLIPESGDYFIYSQVTFRGMTSECSEIRQAGRPNKPDSITVVITKVTDSYPEPTQLLMGTKSVCEVGSNWFQPIYLGAMFSLQEGDKLMVNVSDISLVDYTKEDKTFFGAFLL
13 | – | – | 176 | – | 17.1 | 0.7 | 17.1 | 0.7 ratio (head: nM) | – | 32 | 7 ratio (head: nM) | – | TL1W95 (His-TEV-TL1A Q167A) (ligand, also called TL1W95 (Q167A)) HHHHHHENLYFQGLKGQEFAPSHQQVYAPLRADGDKPRAHLTVVRQTPTQHFKNQFPALHWEHELGLAFTKNRMNYTNKFLLIPESGDYFIYSQVTFRGMTSECSEIRAAGRPNKPDSITVVITKVTDSYPEPTQLLMGTKSVCEVGSNWFQPIYLGAMFSLQEGDKLMVNVSDISLVDYTKEDKTFFGAFLL
